From patent US11015206B2, “Compositions and methods comprising sequences having hydroxyphenylpyruvate dioxygenase (HPPD) activity” (PIONEER HI-BRED INTERNATIONAL, INC., priority 2014, dated 2021)
Numbering of substitutions follows the chain as printed. One block for each molecule: values may come before it.

Experiments:
Type in all cases: biochemical, Z. mays
[1] = tested on: 4-hydroxyphenylpyruvate dioxygenase (HPPD); test: Estimate of kcat from initial rate at saturating hydroxyphenylpyruvate without inhibitor (ON rate ratio assay)
Method in brief: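 kcat was estimated from the initial reaction rate with known enzyme level (60 or 120 nM HPPD). Hydroxyphenylpyruvate was at a saturating 100 μM, with no inhibitor present.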

[2] = tested on: 4-hydroxyphenylpyruvate dioxygenase (HPPD); test: HPPD activity coupled assay with HGD; substrate saturation kinetic parameters (kcat, KM); conditions: substrate saturation kinetic analysis
Method in brief: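 Coupled continuous assay: His-tagged HPPD (5 to 240 nM, E. coli-expressed, Ni-NTA-purified) with 50 nM P. aeruginosa HGD in 25 mM Hepes pH 7, 2 mM ascorbate, 10 μM FeSO4; maleylacetoacetate followed at 320 nm. KM and Vmax from Lineweaver-Burke fits over 3.33–100 μM HPP.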

[3] = tested on: 4-hydroxyphenylpyruvate dioxygenase (HPPD); test: ON rate ratio: HPPD reaction rate with vs without inhibitor in the 70 to 90 second interval; conditions: for ON rate ratio: Table 7, tembotrione, combinatorial variants; for Insensitivity, isoxaflutole (DKN), Rate ratio ON: inhibitor diketonitrile form of isoxaflutole (DKN); for Insensitivity, mesotrione, Rate ratio ON: inhibitor mesotrione; for Insensitivity, sulcotrione, Rate ratio ON: inhibitor sulcotrione; for Insensitivity, tembotrione, Rate ratio ON: inhibitor tembotrione; for Insensitivity, topramezone, Rate ratio ON: inhibitor topramezone
Method in brief: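 Indicator of inhibitor on-rate: reaction velocity in the 70 to 90 second window with 4 μM inhibitor divided by that without. Reactions contained 100 μM HPP and 60 or 120 nM HPPD; slower binding gives a larger ratio.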

[4] = Table 7, combinatorial variants

ON rate ratio [3]: 0.648
Insensitivity, isoxaflutole (DKN), Rate ratio ON [3]: 0.77
Insensitivity, mesotrione, Rate ratio ON [3]: 0.67
Insensitivity, sulcotrione, Rate ratio ON [3]: 0.78
Insensitivity, tembotrione, Rate ratio ON [3]: 0.75
Insensitivity, topramezone, Rate ratio ON [3]: 0.80
B1: P056028-B-09 (protein)
chain: MGPTPTATAAGAAVAAASAAEQAAFRLVGHRNFVRFNPRSDRFQTLAFHHVELWCADAASAAGRFSFALGVPLAARSDLSTGNSAHASLLLRSGSLSLLFTAPYAHGADAATAALPSFSAAAARRFAADHGLAVRAVALRVADAEDAFRASVAAGARPAFGPVDLGRGFRLAEVELYGDVVLRYVSYPDGAAGEPFLPGFEGVASPGAADYGLSRFDHIVGNVPELAPAAAYMAGFTGFHEFAEFTTEDVGTTESGLNSMALANNSENVLLPLNEPVHGTKRRSQIQTFLDHHGGPGVQHIALASDDVLRTLREMRARSAMGGFEFLPPPLSDYYDDVRRCAGDVLTEAQINECQELGVMVDRDDEGVLLQIFTKPVGDRPTFFLEIIQRIGCVEKDEKGQEYQKGGCGGFGKGNFGQLFKSIEDYEKSLEAKRAAAAATAQGS
modifications: Zea mays variant form created by artificial means.
kcat ([1]; Megatable 3, shuffled variants): 0.575 s⁻¹
kcat [1, 4]: 0.575 s⁻¹
Km [2]: 3 µM
kcat [2]: 1.55 s⁻¹

ON rate ratio [3]: 0.697
Insensitivity, isoxaflutole (DKN), Rate ratio ON [3]: 0.82
Insensitivity, mesotrione, Rate ratio ON [3]: 0.67
Insensitivity, sulcotrione, Rate ratio ON [3]: 0.80
Insensitivity, tembotrione, Rate ratio ON [3]: 0.84
Insensitivity, topramezone, Rate ratio ON [3]: 0.85
B2: P056028-A-01 (protein)
chain: B1 chain with D337G, V394M
modifications: Zea mays variant form created by artificial means.
kcat ([1]; Megatable 3, shuffled variants): 0.652 s⁻¹
kcat [1, 4]: 0.652 s⁻¹
Km [2]: 2.49 µM
kcat [2]: 1.21 s⁻¹

ON rate ratio [3]: 0.760
Insensitivity, isoxaflutole (DKN), Rate ratio ON [3]: 0.83
Insensitivity, mesotrione, Rate ratio ON [3]: 0.72
Insensitivity, sulcotrione, Rate ratio ON [3]: 0.80
Insensitivity, tembotrione, Rate ratio ON [3]: 0.82
Insensitivity, topramezone, Rate ratio ON [3]: 0.81
B3: 9070Q366E (protein)
chain: B1 chain with D337G, V394M, R434Q
modifications: Zea mays variant form created by artificial means.
kcat ([1]; Megatable 3, shuffled variants): 0.335 s⁻¹
kcat [1, 4]: 0.335 s⁻¹
Km [2]: 1.57 µM
kcat [2]: 0.513 s⁻¹
